Source: patent US20250339531A1, “DUX4 POLYPEPTIDES AND NUCLEIC ACIDS FOR TREATING INFLAMMATORY AND AUTOIMMUNE CONDITIONS” (Fred Hutchinson Cancer Center, priority 2021, published 2025)

Experiments:
Assay in all cases: anti-FLAG co-IP LC-MS, exp 4, +Dox +IFNG
[1] = molecular target: 14-3-3 protein sigma (Homo sapiens) (UniProt P31947)
[2] = molecular target: 40S ribosomal protein S3 (Homo sapiens) (UniProt P23396)
[3] = molecular target: 40S ribosomal protein S4, X isoform (Homo sapiens) (UniProt P62701)
[4] = molecular target: 60S ribosomal protein L13 (Homo sapiens) (UniProt P26373)
[5] = molecular target: 60S ribosomal protein L8 (Homo sapiens) (UniProt P62917)
[6] = molecular target: ADP/ATP translocase 2 (Homo sapiens) (UniProt P05141)
[7] = molecular target: AP-2 complex subunit alpha-1 (Homo sapiens) (UniProt O95782)
[8] = molecular target: Actin-related protein 3 (Homo sapiens) (UniProt P61158)
[9] = molecular target: Alpha-actinin-4 (Homo sapiens) (UniProt O43707)
[10] = molecular target: Alpha-enolase (Homo sapiens) (UniProt P06733)
Alpha-enolase (Homo sapiens), sequence (P06733 2-434 limits assumed): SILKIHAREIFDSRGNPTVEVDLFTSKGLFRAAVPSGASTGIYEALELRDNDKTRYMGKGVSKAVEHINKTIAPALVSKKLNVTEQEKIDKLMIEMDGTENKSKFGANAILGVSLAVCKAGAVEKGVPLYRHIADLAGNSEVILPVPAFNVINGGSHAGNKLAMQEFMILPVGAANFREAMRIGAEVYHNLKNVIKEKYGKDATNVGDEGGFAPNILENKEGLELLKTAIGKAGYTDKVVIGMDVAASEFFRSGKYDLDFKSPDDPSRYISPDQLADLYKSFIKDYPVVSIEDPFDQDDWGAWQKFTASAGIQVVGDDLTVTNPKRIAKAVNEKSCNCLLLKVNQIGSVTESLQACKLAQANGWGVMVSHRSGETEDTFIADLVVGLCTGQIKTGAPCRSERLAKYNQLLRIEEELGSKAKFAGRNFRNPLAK

[11] = molecular target: Calpain-2 catalytic subunit (Homo sapiens) (UniProt P17655)
[12] = molecular target: Clathrin heavy chain (Homo sapiens) (UniProt Q00610)
Drebrin (Homo sapiens) = Drebrin (Homo sapiens) (UniProt Q16643)
[13] = molecular target: Elongation factor 1-delta (Homo sapiens)
[14] = molecular target: Endonuclease domain-containing 1 protein (Homo sapiens) (UniProt O94919)
Endonuclease domain-containing 1 protein (Homo sapiens), sequence (O94919 22-500 limits assumed): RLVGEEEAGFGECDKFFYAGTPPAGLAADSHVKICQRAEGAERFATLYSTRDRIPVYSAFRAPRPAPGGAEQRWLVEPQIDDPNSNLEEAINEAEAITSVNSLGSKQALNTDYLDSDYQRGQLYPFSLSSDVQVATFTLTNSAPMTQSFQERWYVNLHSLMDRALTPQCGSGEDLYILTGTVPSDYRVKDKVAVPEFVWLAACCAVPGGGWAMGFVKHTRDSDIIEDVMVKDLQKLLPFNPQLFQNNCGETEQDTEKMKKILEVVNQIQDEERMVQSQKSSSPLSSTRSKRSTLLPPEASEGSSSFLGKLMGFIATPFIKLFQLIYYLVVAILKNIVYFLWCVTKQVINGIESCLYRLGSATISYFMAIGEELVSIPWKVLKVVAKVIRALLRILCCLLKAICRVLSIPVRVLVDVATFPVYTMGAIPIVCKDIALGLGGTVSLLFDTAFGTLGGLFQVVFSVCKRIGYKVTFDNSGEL

[15] = molecular target: Galectin-7 (Homo sapiens) (UniProt P47929)
[16] = molecular target: Heat shock cognate 71 kDa protein (Homo sapiens) (UniProt P11142)
Heat shock cognate 71 kDa protein (Homo sapiens), sequence (P11142 2-646 limits assumed): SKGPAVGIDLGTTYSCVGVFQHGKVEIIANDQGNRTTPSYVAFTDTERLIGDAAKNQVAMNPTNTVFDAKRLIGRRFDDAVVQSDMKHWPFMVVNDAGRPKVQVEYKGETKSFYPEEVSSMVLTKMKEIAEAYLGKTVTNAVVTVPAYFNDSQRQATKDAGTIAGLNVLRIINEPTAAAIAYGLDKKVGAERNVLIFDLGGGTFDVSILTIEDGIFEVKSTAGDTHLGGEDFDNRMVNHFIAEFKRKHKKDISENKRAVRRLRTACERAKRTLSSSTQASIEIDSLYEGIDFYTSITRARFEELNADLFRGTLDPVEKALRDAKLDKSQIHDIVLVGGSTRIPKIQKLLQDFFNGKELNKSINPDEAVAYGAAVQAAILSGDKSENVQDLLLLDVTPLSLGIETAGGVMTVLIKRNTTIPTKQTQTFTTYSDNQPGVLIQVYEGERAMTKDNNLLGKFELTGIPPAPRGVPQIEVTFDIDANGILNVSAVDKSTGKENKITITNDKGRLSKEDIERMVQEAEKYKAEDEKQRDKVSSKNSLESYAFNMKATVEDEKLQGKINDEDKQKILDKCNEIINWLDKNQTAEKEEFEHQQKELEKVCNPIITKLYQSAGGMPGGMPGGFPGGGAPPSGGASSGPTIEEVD

[17] = molecular target: Heat shock protein HSP 90-alpha (Homo sapiens) (UniProt P07900)
[18] = molecular target: Heat shock protein HSP 90-beta (Homo sapiens) (UniProt P08238)
[19] = molecular target: Heterogeneous nuclear ribonucleoprotein K (Homo sapiens) (UniProt P61978)
[20] = molecular target: Histone-binding protein RBBP7 (Homo sapiens) (UniProt Q16576)
[21] = molecular target: Junctional sarcoplasmic reticulum protein 1 (Homo sapiens) (UniProt Q96MG2)
[22] = molecular target: Nucleosome assembly protein 1-like 1 (Homo sapiens) (UniProt P55209)
Nucleosome assembly protein 1-like 1 (Homo sapiens), sequence (P55209 2-388 limits assumed): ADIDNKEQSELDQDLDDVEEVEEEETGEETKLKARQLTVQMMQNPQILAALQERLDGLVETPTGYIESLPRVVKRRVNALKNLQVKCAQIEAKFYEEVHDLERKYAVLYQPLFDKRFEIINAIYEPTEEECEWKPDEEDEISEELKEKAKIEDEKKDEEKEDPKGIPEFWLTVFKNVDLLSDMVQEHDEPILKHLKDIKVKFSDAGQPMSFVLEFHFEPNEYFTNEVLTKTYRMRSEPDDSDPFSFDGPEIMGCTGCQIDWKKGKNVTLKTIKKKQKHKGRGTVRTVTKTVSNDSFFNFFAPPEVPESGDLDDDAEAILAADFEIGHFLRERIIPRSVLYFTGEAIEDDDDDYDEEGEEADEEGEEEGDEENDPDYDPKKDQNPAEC

[23] = molecular target: Plasminogen activator inhibitor 1 (Homo sapiens) (UniProt P05121)
[24] = molecular target: Probable ubiquitin carboxyl-terminal hydrolase FAF-X (Homo sapiens) (UniProt Q93008)
Probable ubiquitin carboxyl-terminal hydrolase FAF-X (Homo sapiens), sequence (Q93008 whole entry): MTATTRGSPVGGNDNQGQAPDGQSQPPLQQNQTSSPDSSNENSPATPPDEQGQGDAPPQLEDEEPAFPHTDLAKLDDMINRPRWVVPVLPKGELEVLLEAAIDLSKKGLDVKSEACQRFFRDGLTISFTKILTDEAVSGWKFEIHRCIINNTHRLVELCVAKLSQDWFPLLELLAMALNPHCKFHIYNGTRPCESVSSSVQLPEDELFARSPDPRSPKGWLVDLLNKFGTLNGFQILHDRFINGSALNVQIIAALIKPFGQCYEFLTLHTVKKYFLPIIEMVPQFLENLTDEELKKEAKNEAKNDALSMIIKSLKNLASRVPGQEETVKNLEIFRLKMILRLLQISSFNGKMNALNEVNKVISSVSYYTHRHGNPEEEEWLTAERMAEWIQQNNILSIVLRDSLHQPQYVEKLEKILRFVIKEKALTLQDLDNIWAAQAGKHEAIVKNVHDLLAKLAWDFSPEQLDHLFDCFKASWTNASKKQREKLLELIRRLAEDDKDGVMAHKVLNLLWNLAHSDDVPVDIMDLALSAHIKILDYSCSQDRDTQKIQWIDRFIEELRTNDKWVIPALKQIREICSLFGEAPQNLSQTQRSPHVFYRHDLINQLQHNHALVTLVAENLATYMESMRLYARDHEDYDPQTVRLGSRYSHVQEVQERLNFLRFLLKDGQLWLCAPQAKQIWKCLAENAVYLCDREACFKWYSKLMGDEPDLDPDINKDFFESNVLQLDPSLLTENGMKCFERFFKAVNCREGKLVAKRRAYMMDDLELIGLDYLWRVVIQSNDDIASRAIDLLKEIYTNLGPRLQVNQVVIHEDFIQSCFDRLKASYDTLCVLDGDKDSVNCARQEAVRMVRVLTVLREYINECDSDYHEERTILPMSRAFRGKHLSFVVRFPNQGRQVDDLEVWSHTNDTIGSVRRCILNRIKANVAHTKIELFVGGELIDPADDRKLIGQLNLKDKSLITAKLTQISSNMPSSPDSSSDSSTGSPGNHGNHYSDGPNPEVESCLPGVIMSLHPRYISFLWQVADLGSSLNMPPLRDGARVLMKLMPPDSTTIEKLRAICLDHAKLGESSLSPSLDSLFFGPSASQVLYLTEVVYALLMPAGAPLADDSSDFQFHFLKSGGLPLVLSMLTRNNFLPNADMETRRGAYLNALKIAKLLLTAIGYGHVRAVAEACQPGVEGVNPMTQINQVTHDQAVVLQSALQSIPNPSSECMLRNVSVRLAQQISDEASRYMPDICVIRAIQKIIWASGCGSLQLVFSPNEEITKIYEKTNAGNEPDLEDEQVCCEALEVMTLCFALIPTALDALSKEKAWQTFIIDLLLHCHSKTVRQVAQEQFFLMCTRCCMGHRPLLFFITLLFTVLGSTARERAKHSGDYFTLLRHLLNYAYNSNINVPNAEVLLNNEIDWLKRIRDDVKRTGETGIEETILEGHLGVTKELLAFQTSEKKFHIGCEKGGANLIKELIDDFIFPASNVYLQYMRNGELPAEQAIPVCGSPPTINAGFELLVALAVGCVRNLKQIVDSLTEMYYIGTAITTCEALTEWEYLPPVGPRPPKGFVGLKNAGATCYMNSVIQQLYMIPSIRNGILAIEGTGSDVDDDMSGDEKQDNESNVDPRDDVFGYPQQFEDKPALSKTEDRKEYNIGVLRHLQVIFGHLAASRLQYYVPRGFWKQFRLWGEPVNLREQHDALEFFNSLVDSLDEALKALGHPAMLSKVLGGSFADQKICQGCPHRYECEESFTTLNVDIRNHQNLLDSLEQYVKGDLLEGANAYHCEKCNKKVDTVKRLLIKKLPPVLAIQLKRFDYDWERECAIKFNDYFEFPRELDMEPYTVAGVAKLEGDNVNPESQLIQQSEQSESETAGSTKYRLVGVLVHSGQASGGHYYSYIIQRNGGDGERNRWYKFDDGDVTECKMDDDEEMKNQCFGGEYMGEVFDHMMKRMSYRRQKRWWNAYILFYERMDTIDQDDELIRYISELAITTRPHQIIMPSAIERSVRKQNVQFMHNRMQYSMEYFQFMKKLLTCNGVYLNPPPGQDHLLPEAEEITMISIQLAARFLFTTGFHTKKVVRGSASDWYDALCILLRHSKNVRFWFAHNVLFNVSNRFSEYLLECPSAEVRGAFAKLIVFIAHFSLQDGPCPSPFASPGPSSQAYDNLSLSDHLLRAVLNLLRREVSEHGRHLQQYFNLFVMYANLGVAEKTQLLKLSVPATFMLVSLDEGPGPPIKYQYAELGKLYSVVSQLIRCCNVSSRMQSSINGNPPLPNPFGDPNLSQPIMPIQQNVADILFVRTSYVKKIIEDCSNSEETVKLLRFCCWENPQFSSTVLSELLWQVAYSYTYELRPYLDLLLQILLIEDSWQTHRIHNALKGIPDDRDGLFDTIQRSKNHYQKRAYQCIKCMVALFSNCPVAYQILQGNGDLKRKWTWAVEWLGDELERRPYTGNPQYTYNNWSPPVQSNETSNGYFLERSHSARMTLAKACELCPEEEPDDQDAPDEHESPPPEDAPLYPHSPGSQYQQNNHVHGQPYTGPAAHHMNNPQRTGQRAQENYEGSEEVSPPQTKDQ

[25] = molecular target: Procollagen-lysine, 2-oxoglutarate 5-dioxygenase 1 (Homo sapiens) (UniProt Q02809)
[26] = molecular target: Procollagen-lysine,2-oxoglutarate 5-dioxygenase 2 (Homo sapiens) (UniProt O00469)
[27] = molecular target: Prostate tumor-overexpressed gene 1 protein (Homo sapiens) (UniProt Q86YD1)
[28] = molecular target: Protease serine 2 preproprotein (Homo sapiens) (UniProt A6XMV9)
[29] = molecular target: Ras GTPase-activating protein-binding protein 1 (Homo sapiens) (UniProt Q13283)
[30] = molecular target: T-complex protein 1 subunit gamma (Homo sapiens) (UniProt P49368)
[31] = molecular target: T-complex protein 1 subunit theta (Homo sapiens) (UniProt P50990)
T-complex protein 1 subunit theta (Homo sapiens), sequence (P50990 2-548 limits assumed, one chain of several): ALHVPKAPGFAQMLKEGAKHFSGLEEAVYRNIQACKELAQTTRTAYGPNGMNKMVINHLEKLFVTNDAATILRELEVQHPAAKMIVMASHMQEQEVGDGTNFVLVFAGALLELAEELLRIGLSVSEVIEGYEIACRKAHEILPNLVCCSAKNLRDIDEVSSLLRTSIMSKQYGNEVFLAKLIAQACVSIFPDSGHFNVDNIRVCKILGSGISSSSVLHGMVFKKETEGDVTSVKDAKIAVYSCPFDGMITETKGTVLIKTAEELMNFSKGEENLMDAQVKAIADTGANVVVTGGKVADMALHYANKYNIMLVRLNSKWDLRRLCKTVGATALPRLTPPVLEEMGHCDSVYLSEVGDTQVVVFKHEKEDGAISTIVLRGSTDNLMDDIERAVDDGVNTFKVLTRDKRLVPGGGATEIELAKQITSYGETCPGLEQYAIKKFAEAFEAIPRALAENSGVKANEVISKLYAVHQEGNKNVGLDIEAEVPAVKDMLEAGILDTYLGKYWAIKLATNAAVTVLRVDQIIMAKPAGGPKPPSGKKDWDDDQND

Talin-1 (Homo sapiens) = Talin-1 (Homo sapiens) (UniProt Q9Y490)
[32] = molecular target: Tubulin alpha chain (Homo sapiens) (UniProt F5H5D3)
[33] = molecular target: Tubulin beta-6 chain (Homo sapiens) (UniProt Q9BUF5)
[34] = molecular target: Ubiquitin carboxyl-terminal hydrolase 11 (Homo sapiens) (UniProt P51784)
[35] = molecular target: cAMP-dependent protein kinase type I-alpha regulatory subunit (Homo sapiens) (UniProt P10644)

**Q.** Which results are given for i3XFLAG-NLS-CTDaa154-424?
**A.** PSMs [1]: 6 PSMs; PSMs [2]: 11 PSMs; PSMs [3]: 3 PSMs; PSMs [4]: 2 PSMs; PSMs [5]: 2 PSMs; PSMs [6]: 6 PSMs; PSMs [7]: 2 PSMs; PSMs [8]: 3 PSMs; PSMs [9]: 46 PSMs; PSMs [10]: 2 PSMs; PSMs [11]: 3 PSMs; PSMs [12]: 28 PSMs; PSMs (Drebrin (Homo sapiens)): 33 PSMs; PSMs [13]: 11 PSMs; PSMs [14]: 2 PSMs; PSMs [15]: 6 PSMs; PSMs [16]: 105 PSMs; PSMs [17]: 10 PSMs; PSMs [18]: 10 PSMs; PSMs [19]: 6 PSMs; PSMs [20]: 5 PSMs; PSMs [21]: 3 PSMs; PSMs [22]: 3 PSMs; PSMs [23]: 3 PSMs; PSMs [24]: 3 PSMs; PSMs [25]: 6 PSMs; PSMs [26]: 7 PSMs; PSMs [27]: 2 PSMs; PSMs [28]: 2 PSMs; PSMs [29]: 2 PSMs; PSMs [30]: 2 PSMs; PSMs [31]: 3 PSMs; PSMs (Talin-1 (Homo sapiens)): 3 PSMs; PSMs [32]: 25 PSMs; PSMs [33]: 46 PSMs; PSMs [34]: 2 PSMs; PSMs [35]: 3 PSMs
